# Values of other authors, collected in US20150182632A1, “ANTI-INTERLEUKIN-1 (IL-1) ANTIBODY USED AS A TARGETING AGENT TO TREAT ARTHRITIS AND OTHER DISEASES” (priority 2012, published 2015).
# Target: T1, IL-1 (Homo sapiens, UniProt P01584)
# T1 construct: Patients with arthritis and other inflammatory diseases produce IL-1 which is present in the blood; host or cells: endogenous IL-1 of RA patients (in vivo)
# Settings: several intravenous injections
substance,measurement,value
ACZ885: anti-IL-1 monoclonal antibody,clinical response of RA patients,clinical improvement
